According to patent publication US5387578A (priority 1990, dated 1995):

Assays:
[1] = Release of 13b from conjugates in acetate buffer at 37° C.; assay type: physicochemical; settings: pH 5, 37° C., ionic strength 0.05M, HPLC
Method: In Table 4 are reported t50 % of release of 3'deamino-3'[2(S) -methoxy-4-morpholinyl]doxorubicin (13b) from the conjugates at […] (acetate buffer) at 37° C.
Release of 13b from conjugates at pH 5 and
temperature 37° C. in acetate buffer^(7).
^(6) Time requests for the release of 50% of free drug 13b. Determine
by HPLC using a calibration curve of compound 13b.
^(7) Ionic strenght 0.05M.

[2] = test system: LoVo-Doxo-resistant (LoVo/DX) cells; assay type: cell-based; settings: human, lovo/dx vs lovo cells, 240 min

Compound	t50% (time for the release of 50% of free drug 13b) [1]	R.I. = Resistance Index = (IC50 LoVo/DX)/(IC50 LoVo) [2]
conjugate of Poly(Glu-Na, Ala.Tyr) (1:1:1) and 14-O-(1-piperazinocarbonylmethyloxy-cyclohexyl)-3'-deamino[2(S)-methoxy-4- morpholinyl]doxorubicin [1^viii]	3.5 h	
copolymer of 3-methacryloylamino-2-hydroxypropane and 14-O-{1-[4-(6-methacryloylaminocaproyl)piperazinlyl]-carbonylmethyloxy-cyclohexyl}-3'-deamino-3'[2(S)-methoxy-4-morpholinyl]doxorubicin [1^vii]	20 h	
COc1cccc2c1C(=O)c1c(O)c3c(c(O)c1C2=O)C[C@@](O)(C(=O)CO)C[C@@H]3O[C@H]1C[C@H](N2CCO[C@H](OC)C2)[C@H](O)[C@H](C)O1 [Compound 13b]		2
COc1cccc2c1C(=O)c1c(O)c3c(c(O)c1C2=O)C[C@@](O)(C(=O)CO)C[C@@H]3O[C@H]1C[C@H](N)[C@H](O)[C@H](C)O1 [Doxorubicin]		36.3
